Changes are numbered by the printed parent chain.
How the values were obtained:
[1] = molecular target: T1, ALCAM (Activated leukocyte cell adhesion molecule) (Homo sapiens (Human), UniProt Q13740 28-583); assay: flow cytometry histograms on various cell lines, antigen identified later
T1 construct: Native protein on cancer cell lines; also called CD166 antigen; CD166
T1 sequence: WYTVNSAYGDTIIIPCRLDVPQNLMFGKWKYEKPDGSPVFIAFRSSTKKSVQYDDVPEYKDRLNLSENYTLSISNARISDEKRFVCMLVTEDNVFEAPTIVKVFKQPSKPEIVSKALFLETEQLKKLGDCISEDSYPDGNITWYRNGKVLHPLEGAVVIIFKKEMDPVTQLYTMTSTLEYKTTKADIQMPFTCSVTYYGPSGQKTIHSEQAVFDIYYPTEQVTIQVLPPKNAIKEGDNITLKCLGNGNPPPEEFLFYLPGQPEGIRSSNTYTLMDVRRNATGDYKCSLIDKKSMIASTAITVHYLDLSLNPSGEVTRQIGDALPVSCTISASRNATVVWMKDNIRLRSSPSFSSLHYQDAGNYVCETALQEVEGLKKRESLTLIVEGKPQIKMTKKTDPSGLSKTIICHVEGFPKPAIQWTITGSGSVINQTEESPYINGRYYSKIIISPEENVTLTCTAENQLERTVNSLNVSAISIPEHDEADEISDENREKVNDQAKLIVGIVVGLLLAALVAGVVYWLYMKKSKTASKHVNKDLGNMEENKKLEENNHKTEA

[2] = molecular target: T2, LAR (Leukocyte common Antigen-Related) (Homo sapiens (Human), UniProt P10586 30-1907, limits assumed); assay: antigen assigned by the filing's classifying and identification method; details for this clone not given
T2 construct: also called PTP-LAR; protein tyrosine phosphatase receptor type F (PTPRF)

[3] = molecular target: T3, HGFR (Hepatocyte growth factor receptor) (Homo sapiens (Human), UniProt P08581 25-1390); assay: as above
T3 construct: also called Met
T3 sequence (P08581 25-1390 L1272V limits assumed): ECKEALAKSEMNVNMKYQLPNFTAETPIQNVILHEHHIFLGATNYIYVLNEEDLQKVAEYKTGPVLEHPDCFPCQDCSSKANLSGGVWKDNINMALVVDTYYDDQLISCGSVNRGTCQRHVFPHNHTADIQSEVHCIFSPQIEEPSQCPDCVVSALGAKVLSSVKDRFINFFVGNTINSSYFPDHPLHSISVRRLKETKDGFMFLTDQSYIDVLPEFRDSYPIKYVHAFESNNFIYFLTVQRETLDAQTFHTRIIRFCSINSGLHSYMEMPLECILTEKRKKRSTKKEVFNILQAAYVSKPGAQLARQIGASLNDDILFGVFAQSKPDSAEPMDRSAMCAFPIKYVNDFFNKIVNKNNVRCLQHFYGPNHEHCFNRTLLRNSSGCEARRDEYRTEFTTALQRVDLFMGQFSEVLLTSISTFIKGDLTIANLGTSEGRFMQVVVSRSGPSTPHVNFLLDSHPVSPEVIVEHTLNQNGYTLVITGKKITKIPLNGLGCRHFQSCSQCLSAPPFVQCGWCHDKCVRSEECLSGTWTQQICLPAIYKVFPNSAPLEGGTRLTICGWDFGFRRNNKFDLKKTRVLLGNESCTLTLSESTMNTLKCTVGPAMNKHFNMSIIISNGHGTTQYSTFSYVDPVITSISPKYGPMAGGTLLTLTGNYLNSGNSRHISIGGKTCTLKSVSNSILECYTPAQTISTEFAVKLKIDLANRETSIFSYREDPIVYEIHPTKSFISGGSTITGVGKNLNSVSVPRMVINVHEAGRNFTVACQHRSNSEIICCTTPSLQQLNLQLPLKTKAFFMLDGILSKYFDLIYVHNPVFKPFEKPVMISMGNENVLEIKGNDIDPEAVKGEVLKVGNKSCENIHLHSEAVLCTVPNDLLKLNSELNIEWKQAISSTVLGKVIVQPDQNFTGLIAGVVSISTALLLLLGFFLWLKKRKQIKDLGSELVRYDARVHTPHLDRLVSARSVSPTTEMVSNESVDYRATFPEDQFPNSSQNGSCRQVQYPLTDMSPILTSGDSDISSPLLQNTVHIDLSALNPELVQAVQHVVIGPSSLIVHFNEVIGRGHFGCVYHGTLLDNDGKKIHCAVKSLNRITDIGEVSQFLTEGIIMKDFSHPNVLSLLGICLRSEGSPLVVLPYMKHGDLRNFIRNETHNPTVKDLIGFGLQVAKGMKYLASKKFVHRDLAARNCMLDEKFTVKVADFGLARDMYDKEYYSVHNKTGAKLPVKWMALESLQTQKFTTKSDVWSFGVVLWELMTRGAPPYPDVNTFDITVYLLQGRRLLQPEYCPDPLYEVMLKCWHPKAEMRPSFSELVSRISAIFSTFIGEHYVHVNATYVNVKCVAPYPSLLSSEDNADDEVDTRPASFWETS

[4] = molecular target: T1, ALCAM (Activated leukocyte cell …); assay: as above
[5] = molecular target: T1, ALCAM (Activated leukocyte cell …); assay: immunoprecipitation from biotin-labelled cell lysate with pp type antibody, mass spectrometry
CD73 = molecular target: T4, CD73 (Homo sapiens (Human), UniProt P21589 27-549, limits assumed); assay: antigen assigned by the filing's classifying and identification method; details for this clone not given
T4 construct: also called 5-prime-ribonucleotide phosphohydrolase
T4 sequence: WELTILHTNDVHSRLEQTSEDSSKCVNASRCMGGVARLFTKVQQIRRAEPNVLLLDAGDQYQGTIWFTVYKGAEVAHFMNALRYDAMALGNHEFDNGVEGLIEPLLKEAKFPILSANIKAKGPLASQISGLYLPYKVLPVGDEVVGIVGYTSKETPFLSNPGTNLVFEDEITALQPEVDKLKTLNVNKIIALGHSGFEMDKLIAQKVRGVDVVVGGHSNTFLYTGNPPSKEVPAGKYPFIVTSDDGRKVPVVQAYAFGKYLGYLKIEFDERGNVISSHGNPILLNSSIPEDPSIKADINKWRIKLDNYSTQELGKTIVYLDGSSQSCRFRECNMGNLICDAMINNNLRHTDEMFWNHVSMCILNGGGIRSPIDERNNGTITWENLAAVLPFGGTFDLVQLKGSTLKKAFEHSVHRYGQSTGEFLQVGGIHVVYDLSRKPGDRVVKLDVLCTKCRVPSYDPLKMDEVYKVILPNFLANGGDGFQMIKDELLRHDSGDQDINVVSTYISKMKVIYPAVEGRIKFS

EpCAM = molecular target: T5, EpCAM (Homo sapiens (Human), UniProt P16422 24-314); assay: as above
T5 chain: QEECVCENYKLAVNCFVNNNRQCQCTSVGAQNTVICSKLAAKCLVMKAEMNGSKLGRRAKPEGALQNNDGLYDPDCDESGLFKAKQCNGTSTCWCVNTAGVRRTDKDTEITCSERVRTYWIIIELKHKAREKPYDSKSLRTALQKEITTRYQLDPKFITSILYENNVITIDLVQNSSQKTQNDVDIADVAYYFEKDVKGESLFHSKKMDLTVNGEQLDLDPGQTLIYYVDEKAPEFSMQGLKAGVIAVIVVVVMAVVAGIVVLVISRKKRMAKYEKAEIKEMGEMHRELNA

CD44 = CD44 (Homo sapiens (Human), UniProt P16070 24-742); assay: as above
Chain of CD44 (P16070 24-742): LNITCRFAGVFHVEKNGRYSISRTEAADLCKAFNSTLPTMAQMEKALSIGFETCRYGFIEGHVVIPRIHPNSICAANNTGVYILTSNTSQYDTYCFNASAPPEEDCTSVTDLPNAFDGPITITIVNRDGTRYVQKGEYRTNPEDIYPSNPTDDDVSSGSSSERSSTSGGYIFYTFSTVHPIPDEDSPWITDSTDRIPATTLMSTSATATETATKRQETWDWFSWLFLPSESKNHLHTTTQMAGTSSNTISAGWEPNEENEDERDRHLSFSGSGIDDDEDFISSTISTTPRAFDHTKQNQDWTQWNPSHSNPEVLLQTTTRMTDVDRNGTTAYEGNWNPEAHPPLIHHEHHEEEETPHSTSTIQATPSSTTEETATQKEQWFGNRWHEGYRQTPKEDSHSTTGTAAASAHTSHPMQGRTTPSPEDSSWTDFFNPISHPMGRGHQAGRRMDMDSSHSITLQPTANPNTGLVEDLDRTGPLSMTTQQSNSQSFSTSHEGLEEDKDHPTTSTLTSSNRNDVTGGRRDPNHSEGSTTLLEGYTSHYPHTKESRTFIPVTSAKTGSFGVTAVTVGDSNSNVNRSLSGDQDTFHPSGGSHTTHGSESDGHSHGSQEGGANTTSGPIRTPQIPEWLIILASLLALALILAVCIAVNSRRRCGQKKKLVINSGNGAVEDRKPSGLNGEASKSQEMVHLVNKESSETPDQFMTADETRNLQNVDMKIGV

B1: 040-107 antibody (antibody, V domains shown)
VH: EVQLVESGGGVVQPGGSLRLSCAASGFNFDVYGMNWVRQVPGKGLEWVSLINGDGGLRYYADSVKGRFTVSRDNSRNSLYLQMNSLRSEDTALYYCVKGNFQQWGQGTLVTVSR
VL: SYVLTQPPSVSVAPGKTARITCGGNNIGSKSVHWYQQKPGQAPVLVIYYDSDRPSGIPERFSGSNSGNTATLTISRVEAGDEADYYCQVWDSSSDHVVFGGGTKLTVLG
notes: Clone of the scFv-CL-cp3 phage library; pp type (protein A fusion) used for immunoprecipitation
B1: binds [1].

B2: 065-358 antibody (antibody, V domains shown)
VH: EVQLVESGGGLVQPGGSLRLSCAASGFTFSSYSMNWVRQAPGKGLEWVSYISSSSSTIYYADSVKGRFTISRDNAKNSLYLQMNSLRDEDTAVYYCARDNLEGLDYWGQGTLVTVSR
VL: B1 VL
notes: Clone of the scFv-CL-cp3 phage library
B2: binds [2].

B3: 066-019 antibody (antibody, V domains shown)
VH: QVQLQESGPGLVKPSQTLSLTCTVSGGSISSGDYYWSWIRQPPGKGLEWIGYIYYSGSTYYNPSLKSRVTISVDTSKNQFSLKLSSVTAADTAVYYCARGTGDLEWFDPWGQGTLVTVSR
VL: QSVLTQPPSVSGAPRQTVTISCSGSSSNIGQNSVTWYQRLPGEAPKLLIYYDDLLHSGVSDRFSGSKSGTSASLAISGLQSEDEAEYYCASWDDSLKGPVFGGGTKLTVLG
notes: as for B2
B3: binds [2].

B4: 067-126 antibody (antibody, V domains shown)
VH: QVQLQESGPGLVKPSGTLSLTCAVSGGSISSSNWWSWVRQPPGKGLEWIGEIYHSGSTNYNPSLKSRVTISVDKSKNQFSLKLSSVTAADTAVYYCARGGSYYFDYWGQGTLVTVSR
VL: QSALTQPASVSGSPGQSITISCTGTISDVGGYDFVSWYQHHPGKAPKLLIYDVNNRPSGVSHRFSGSKSGNTASLTISGLQAEDEATYYCSSYSNRHSLIVFGSGTQVVGLG
notes: as for B2
B4: binds [3].

B5: 067-287 antibody (antibody, V domains shown)
VH: QVQLQQWGAGLLKPSETLSLTCTVHGGSFDDYYWTWIRQPPGGGLEWIGEMNSGRTYNYNPFLESRASIDVDTFKKQFSLALRSVTAADTAVYYCARGAYVNYYYIDVWGDGTTVTVSR
VL: B4 VL with S17T
notes: as for B2
B5: binds [3].

B6: 067-133 antibody (antibody, V domains shown)
VH: QVQLQQWGAGLLKPSETLSLTCAVYGGSFSGYYWSWIRQPPGKGLEWIGEINHSGSTNYNPSLKSRVTISVDTSKNQFSLKLSSVTAADTAVYYCARGGGVEALNYGMDVWGQGTTVTVSR
VL: B4 VL with S17T
notes: as for B2
B6: binds [3].

B7: 083-131 antibody (antibody, V domains shown)
VH: EVQLVESGGGVVQPGRSLRLSCAASGFTFDDYAMHWVRQAPGKGLEWVSGISWNSGSIGYADSVKGRFTISRDNAKNSLYLQMNSLRAEDTAVYYCATEEWWRFDLWGRGTLVTVSR
VL: QSALTQPPSASGSPGQSVTISCTGTSSDVDDYNYVSWYQQHPGKAPKLMIYEVTKRPSGVPDRFSGSKSGNTASLTISGLQAEDEADYYCSSYVGSDNRVFGTGTKVTVPG
notes: as for B2
B7: binds [4].

B8: 064-044 antibody (antibody, V domains shown)
VH: QVQLVQSGAEVKKPGASVKVSCKVSGYTLTELSMHWVRQAPGKGLEWMGGFDPEDGETIYAQKFQGRVTMTEDTSTDTAYMELSSLRSEDTAVYYCATDLDYYGSGSYAFDIWGQGTTVTVSR
VL: QSALTQPASVSGSPGQSITISCTGTSSDVGSYNLVSWYQQHPGKAPKLMIYEGSKRPSGVSNRFSGSKSGNTASLTISGLQAEDEADYYCSSYTSSSTWVFGGGTKLTVLG
notes: as for B2
B8: binds [2].

B9: 041-118 antibody (antibody, V domains shown)
VH: EVQLVESGGGLVQPGGSLRLSCAASGFTFDDYAMHWVRQAPGKGLEWVSLISGDGGSTYYADSVKDRFTISRDNSKNSLYLQMNSLRAEDTAVYYCARGNYFDYWGQGTLVTVSR
VL: SYELTQPLSVSVALGQTARITCGGNNIGSKNVHWYQQKPGQAPVLVIYRDSNRPSGIPERFSGSNSGNTATLTISRAQAGDEADYYCQVWDSSVVFGGGTKLTVLG
notes: as for B1
B9: binds [5].

B10: 079-085 antibody (antibody, V domains shown)
VH: EVQLVESGGGLVQPGGSLRLSCAASGFTFSSYSMNWVRQAPGKGLEWVSYISSSSSTIYYADSVKGRFTISRDNAKNSLYLQMNSLRDEDTAVYYCAREGPRGSYYYFDYWGQGTLVTVSR
VL: NFMLTQPHSVSESPGKTVTISCTRSSGSIASNYVQWYQQRPGSAPTTVIYEDNQRPSGVPDRFSGSIDSSSNSASLTISGLKTEDEADYYCQSYDSSNWVFGGGTKLTVLG
notes: as for B2
B10: binds [2].

B11: 035-234 antibody (antibody, V domains shown)
VH: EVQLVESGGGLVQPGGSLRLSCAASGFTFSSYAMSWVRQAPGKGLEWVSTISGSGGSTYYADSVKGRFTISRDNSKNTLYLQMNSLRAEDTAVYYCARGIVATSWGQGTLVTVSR
VL: SYELTQPPSVSVAPGQTARITCGGNKIGSKSVHWYQQKQGQAPVLVIYLDRDRPSGIPERFSGSNSGNTATLTITRVEAEDEADYYCHLWDSGSDQVFGGGTKLTVLG
notes: as for B1
B11: binds [1].

B12: 067-213 antibody (antibody, V domains shown)
VH: EVQLVESGGGLVQPGRSLRLSCAASGFTFDDYAMHWVRQAPGKGLEWVSGISWNSGSIGYADSVKGRFTISRDNAKNSLYLQMNSLRAEDTALYYCVRSGSYNYYYYGMDVWGQGTTVTVSR
VL: not shown
notes: as for B2
B12: binds (CD73).

B13: 067-153 antibody (antibody, V domains shown)
VH: QVQLQESGGGLVQPGGSLRLSCTTSGFTFTSYAMSWVRQAPGKGLEWVSSISGSGGITYYADSVKGRFTISRDNSKNTLYLQMNSLRAEDTAVYYCAKDRVLVPASSSYFDYWGQGTLVTVSR
VL: SSELTQDPAVSVALGQTVRITCQGDSLRSYYASWYQQKPGQAPVLVIYGKNNRPSGIPDRFSGSSSGNTASLTITGAQAEDEADYYCNSRDSSGNHVVFGGGTKLTVLG
notes: as for B2
B13: binds (EpCAM).

B14: 064-003 antibody (antibody, V domains shown)
VH: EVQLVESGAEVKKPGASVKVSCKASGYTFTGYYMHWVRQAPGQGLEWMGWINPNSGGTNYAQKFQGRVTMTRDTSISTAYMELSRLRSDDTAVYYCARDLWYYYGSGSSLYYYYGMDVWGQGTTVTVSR
VL: QSVLTQPPSVSGAPGQRVTISCTGSSSNIGAGYDVHWYQQLPGTAPKLLIYGNSNRPSGVPDRFSGSKSGTSASLAITGLQAEDEADYYCQSYDSSLSGVVFGGGTKLTVLG
notes: as for B2
B14: binds (CD44).

B15: 065-030 antibody (antibody, V domains shown)
VH: QVQLQQWGAGLLKPSETLSLTCAAYGGSFSGYYWSWIRQPPGKGLEWIGEINHSGSTNYNPSLKSRVTISVDTSKNQFSLKLSSVTAADTAVYYCARTYYGSGSYQYNWFDPWGQGTLVTVSR
VL: B14 VL
notes: as for B2
B15: binds [2].
